This is an account of results in article PMC4621513.

This data set concerns the target APOBEC3G (A3G) (UniProt Q9HC16). As to the kind of experiment: AFM imaging. The settings on record: protein:DNA 2:1, Force spectroscopy probing buffer: 50 mM HEPES, 100 mM NaCl, 5 mM MgCl2, 1 mM DTT (pH and temperature not given), imaging buffer not in the material.

APOBEC3G (A3G), sequence (Q9HC16 whole entry): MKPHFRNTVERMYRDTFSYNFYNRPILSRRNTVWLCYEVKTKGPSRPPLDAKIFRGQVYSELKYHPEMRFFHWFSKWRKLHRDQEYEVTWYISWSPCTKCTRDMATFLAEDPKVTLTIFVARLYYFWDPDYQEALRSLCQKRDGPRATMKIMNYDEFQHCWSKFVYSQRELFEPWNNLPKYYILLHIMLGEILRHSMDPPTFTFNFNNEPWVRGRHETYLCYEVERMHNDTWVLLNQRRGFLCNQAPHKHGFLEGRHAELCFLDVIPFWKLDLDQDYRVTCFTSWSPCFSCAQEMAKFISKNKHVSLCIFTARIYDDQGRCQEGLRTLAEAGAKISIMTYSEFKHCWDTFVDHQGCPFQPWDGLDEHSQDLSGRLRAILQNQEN

On to “418 bp duplex with 69 nt deaminase specific overhang”, for which the binding signal (% complex yield) amounted to 79.7.
On to “418 bp duplex with 69 nt nonspecific overhang”, for which, under “p = 0.12 vs specific (not significant)”, the binding signal (% complex yield) worked out at 72.8.
